This passage reports percent of mtSSU particles accommodating mtIF3 results from doi:10.64898/2025.12.30.697032.

This assay has as its target cauliflower mitoribosome small subunit (cauliflower (B. oleracea)). In words: cryo-EM structure; in vitro reconstitution (first reaction): 2.7 ug/uL mtSSU, 500 nM rps3 mRNA (51 nt), 500 nM mtIF3, 2 min at 37 °C, then 10 min on ice; Initiation buffer (20 mM HEPES-KOH pH 7.6, 75 mM KCl, 40 mM MgCl2); gives mtPIC-1 and mtPIC-2.

B1: Arabidopsis mitochondrial initiation factor 3 (natural protein)
chain: MAIWRIINRSYLKYASNQLTRNYYTQVCLASSTHVVKQTTKLSSFDIPNSDICTRPSNIFQNLRFLATSAQTRKKEAEVDSDGPRLNEKITGDYVRLVSEEGHCVVSLREALRRAKELQCDLVEVQRDAKPPVCKIVKYSLELYKKAKVGKERAKAKRAEAIRPDIKEIRFTPKIEAKDLKFKSDQALKLMESGYRVKCLAVPDKDKHKELEPEKLLELLFRFTCFIGDALVESWPEADRKGAVVIVRHAKFGPPKKGGVKLMKDIDIKSARVKEESPKPDSSKAGVATVDDQEDIEKSEPRFSVEQAQPVKFQNAYAKREPSSEFSGGRDASRFEPQSPNQHVNPQRPRFSNQAPNQQPTGRFDPQSPNQPPSAPRPQFPNQQPTGRFDPQFPSQPPRPQFPNQAPNQQSTGRFNPQFPNQRPSPPQSRFPDQAPNQQPSGPSPNRHPDRQGPPPRFQNQAPNQQPTGRFEPQPPNPPRAPPRPQTRLPNETSNEQPTAPGRSSGPASGYGIFSTPKTK
The molecule B1 returned a percent of mtSSU particles accommodating mtIF3 of 70%.
